Consider 4 molecules from US20160237095A1 (KADMON, published 2016).

Assay [1] deals with T1, murine VEGFR2 (murine, UniProt P35918 20-762, limits assumed).
T1 construct: Antigen in the ELISA and Biacore assays; also called mVEGFR2; mouse VEGFR2
The assay can be described thus: ELISA, binding to mVEGFR2 (right panel); detected with a different secondary antibody. (In general: ELISA stands for enzyme-linked immunosorbent assay.)

Assay [2] has as its target T1, murine VEGFR2. The assay can be described thus: blocking ELISA, mVEGF binding to mVEGFR2 (right panel) [continued) B].
Assay [3] deals with T1, murine VEGFR2. The assay is described as follows: Biacore. (Surface plasmon resonance follows binding to a sensor surface in real time, without labels.)
The target of assay [4] is T2, rat VEGFR2 (rat, UniProt O08775 20-760, limits assumed).
T2 construct: Antigen in the Biacore assay
T2 sequence (O08775 20-760 limits assumed): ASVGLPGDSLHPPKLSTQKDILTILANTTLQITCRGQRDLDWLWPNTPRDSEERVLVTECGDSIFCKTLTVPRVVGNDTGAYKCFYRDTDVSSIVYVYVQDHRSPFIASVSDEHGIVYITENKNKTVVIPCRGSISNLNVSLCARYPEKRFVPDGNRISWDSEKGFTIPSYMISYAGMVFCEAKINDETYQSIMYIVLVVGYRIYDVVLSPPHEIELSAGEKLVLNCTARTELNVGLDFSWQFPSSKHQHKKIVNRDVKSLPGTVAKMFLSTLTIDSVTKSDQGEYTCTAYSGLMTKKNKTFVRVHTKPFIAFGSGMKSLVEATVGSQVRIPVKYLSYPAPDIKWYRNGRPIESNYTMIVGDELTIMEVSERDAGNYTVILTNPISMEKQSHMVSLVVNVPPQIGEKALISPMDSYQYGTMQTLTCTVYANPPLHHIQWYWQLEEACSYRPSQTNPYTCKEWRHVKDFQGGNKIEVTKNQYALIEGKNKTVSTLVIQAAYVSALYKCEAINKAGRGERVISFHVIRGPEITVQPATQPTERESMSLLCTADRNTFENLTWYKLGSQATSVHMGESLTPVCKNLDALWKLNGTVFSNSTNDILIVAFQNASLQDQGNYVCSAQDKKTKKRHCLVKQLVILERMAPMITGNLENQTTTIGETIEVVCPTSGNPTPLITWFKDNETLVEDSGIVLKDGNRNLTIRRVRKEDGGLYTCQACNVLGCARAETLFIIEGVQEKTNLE
The assay can be described thus: Biacore.

In assay [5] the target is T3, human VEGFR2 (human, UniProt P35968 20-764, limits assumed).
T3 construct: Antigen in the ELISA and Biacore assays; also called hVEGFR2; KDR
T3 sequence (P35968 20-764 limits assumed): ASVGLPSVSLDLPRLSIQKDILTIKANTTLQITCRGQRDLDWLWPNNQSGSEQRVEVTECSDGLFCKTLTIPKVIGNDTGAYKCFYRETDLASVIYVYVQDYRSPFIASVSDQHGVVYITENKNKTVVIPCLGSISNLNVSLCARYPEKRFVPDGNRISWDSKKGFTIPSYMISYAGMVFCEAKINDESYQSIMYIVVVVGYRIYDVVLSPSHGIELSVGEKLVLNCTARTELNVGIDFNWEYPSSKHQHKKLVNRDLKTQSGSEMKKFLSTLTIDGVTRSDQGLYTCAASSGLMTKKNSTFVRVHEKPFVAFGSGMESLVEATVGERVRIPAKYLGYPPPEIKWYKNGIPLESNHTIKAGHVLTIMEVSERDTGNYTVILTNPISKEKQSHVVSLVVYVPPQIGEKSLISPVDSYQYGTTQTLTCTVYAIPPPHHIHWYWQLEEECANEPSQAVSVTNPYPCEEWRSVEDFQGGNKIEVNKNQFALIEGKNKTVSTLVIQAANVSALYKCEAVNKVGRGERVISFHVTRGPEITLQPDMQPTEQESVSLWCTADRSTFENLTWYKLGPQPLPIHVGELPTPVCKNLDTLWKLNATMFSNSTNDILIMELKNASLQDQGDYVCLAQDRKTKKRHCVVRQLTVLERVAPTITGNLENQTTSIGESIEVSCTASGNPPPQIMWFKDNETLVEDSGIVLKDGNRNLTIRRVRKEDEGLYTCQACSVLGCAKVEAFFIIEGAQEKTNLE
The assay is described as follows: Biacore.

Assay [6] has as its target T4, human VEGFR2 expressed on HUVEC and on KDR-PAE cells (human, UniProt P35968 20-1356).
T4 construct: whole, on cells; also called hVEGFR2; hVEGR2
The assay is described as follows: cell binding (MFI), KDR-PAE cells.

For assay [7], the target named is T3, human VEGFR2. The assay is described as follows: blocking ELISA, hVEGF binding to hVEGFR2 (left panel) [continued) B].
Assay [8] deals with T3, human VEGFR2. The assay is described as follows: ELISA, binding to hVEGFR2 (left panel).
Assay [9] concerns the target T1, murine VEGFR2. The assay is described as follows: ELISA, binding to mVEGFR2 (right panel).

T1 sequence (P35918 20-762 limits assumed): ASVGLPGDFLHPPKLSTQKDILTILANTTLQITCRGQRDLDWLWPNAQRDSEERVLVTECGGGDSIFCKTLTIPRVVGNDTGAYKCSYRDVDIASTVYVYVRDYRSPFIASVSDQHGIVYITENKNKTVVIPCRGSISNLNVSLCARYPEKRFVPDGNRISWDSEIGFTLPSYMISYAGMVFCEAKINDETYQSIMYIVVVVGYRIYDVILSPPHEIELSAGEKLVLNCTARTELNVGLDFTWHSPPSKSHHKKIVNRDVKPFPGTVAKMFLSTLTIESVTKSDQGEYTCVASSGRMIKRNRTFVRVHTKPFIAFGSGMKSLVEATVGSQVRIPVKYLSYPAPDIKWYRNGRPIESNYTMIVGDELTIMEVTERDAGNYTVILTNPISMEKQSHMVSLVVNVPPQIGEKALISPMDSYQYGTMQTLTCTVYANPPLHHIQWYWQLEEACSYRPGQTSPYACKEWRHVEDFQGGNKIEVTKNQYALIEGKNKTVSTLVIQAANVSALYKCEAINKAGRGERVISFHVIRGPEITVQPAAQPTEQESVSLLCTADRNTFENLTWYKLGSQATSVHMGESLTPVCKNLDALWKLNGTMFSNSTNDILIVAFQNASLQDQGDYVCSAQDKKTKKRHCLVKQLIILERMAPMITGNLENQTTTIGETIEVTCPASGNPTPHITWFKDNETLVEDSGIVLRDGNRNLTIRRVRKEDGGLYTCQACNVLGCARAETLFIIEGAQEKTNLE
T4 sequence (P35968 20-1356): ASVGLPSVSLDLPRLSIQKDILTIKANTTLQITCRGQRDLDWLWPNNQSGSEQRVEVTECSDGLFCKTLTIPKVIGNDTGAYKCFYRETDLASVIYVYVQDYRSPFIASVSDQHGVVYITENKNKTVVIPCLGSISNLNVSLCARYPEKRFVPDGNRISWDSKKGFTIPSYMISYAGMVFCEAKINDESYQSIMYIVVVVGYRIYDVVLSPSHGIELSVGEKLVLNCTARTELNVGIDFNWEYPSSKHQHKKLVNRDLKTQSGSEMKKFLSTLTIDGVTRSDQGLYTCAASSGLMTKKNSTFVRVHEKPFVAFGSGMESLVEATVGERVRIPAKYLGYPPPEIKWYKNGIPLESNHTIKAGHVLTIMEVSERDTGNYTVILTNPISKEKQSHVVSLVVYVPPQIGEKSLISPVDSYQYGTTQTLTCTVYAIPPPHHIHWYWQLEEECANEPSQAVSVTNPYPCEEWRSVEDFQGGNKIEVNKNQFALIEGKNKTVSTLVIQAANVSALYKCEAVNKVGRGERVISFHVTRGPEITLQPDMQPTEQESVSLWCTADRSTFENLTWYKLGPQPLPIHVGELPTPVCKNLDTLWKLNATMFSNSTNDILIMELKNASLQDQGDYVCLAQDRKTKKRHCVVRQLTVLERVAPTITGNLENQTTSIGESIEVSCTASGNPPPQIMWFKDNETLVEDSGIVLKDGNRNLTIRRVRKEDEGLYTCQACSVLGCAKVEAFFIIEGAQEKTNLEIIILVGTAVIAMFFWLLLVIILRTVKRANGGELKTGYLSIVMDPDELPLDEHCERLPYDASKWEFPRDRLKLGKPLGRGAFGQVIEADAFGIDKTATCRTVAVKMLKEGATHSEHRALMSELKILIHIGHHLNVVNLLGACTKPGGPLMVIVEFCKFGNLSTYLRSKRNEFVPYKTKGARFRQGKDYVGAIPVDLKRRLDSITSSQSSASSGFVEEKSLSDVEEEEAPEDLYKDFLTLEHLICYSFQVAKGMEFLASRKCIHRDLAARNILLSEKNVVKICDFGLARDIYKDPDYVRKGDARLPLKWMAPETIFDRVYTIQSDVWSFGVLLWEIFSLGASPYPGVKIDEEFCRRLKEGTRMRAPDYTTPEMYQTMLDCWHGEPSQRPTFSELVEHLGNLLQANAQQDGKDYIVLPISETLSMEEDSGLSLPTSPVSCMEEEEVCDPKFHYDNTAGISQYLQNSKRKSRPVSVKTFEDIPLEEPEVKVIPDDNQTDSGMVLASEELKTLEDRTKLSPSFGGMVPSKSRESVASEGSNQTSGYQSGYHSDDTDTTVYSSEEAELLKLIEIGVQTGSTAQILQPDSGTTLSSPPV

B1: DC 101 (a murine monoclonal Ab that binds to murine VEGFR2) (antibody, V domains shown)
VH: EVQLVETGGGLVQPGNSLKLSCATSGFIFSTTWMNWIRQTPGKRLEWLAQIEDKSNNYFISYSESVKGRFTISRDDSKSSVYLQMNNLKEEDTAIYYCSWKYRSNYYFDYWGQGVMVTVSS
VL: DIVLTQSPALAVSLEQRATISCKTSQNVDYYGISYLHWYQQKPGQQPKLLIYEGSNLASGIPARFSGSGSGTDFTLTIDPVEADDIVTYYCQQSKDYPYTFGAGTKLELK
What is called EC50 (read off the curve) is the concentration needed to bring the measured effect to its halfway point. As for B1, the “EC50 (read off the curve)” value in [1] is roughly 0.3 nM. In assay [2], the “IC50 (read off the curve)” value is roughly 0.6 nM.

B2: Mab 149 (antibody, V domains shown)
VH: EVQLLESGGGLVQPGGSLRLSCAASGFTFSWYVMGWVRQAPGKGLEWVSSIYPSGGATNYADSVKGRFTISRDNSKNTLYLQMNSLRAEDTAVYYCARGNYLDYWGQGTLVTVSS
VL: DIQMTQSPGTLSLSPGEGATLSCRASQSVSSNYFGWYQQKPGQAPRLLIYGASSRATGIPDRFSGSGSGTDFTLTISRLEPEDSAVYYCQQFDSSPLSFGGGTKVEIKR
As usually defined, the Kd is the concentration at which binding is half-saturated. For the molecule B2, the Kd in assay [3] was 79.2 nM; in [4] it was 43.1 nM; in assay [5], 7.65 nM.

B3: Mab 138 (antibody, V domains shown)
VH: EVQLLESGGGLVQPGGSLRLSCAASGFTFSWYVMGWVRQAPGKGLEWVSSIYPSGGATNYADSVKGRFTISRDNSKNTLYLQMNSLRAEDTAVYYCARGNYFDYWGQGTLVTVSS
VL: DIQMTQSPGTLSLSPGDRATLSCRASQSVSSNYLAWYQQKPGQAPRVLIYGASTRATGIPDRFTGSGSGTDFTLTISRLEPEDSAVYYCQQFDSSPLSFGGGTKVEIKR
For B3, binding in [4] was put at a Kd of 31.2 nM.

B4: Mab 147 (antibody, V domains shown)
VH: EVQLLESGGGLVQPGGSLRLSCAASGFTFSWYVMGWVRQAPGKGLEWVSSIYPQGGATSYADSVKGRFTISRDNSKNTLYLQMNSLRAEDTAVYYCARGNYFDYWGQGTLVTVSS
VL: DIQMTQSPGTLSLSPGEGATLSCRASQSVSSNYFGWYQQKPGQAPRLLIYGASSRATGIPDRFSGSGSGTDFTLTISRLEPEDSAVYYCQQFDSLPLTFGGGTKVEIKR
In the case of B4, the “EC50 (read off the curve)” value in assay [6] is roughly 0.3 nM; in assay [8], roughly 0.1 nM; in assay [9] it was roughly 0.1 nM. Moreover, the results for the “IC50 (read off the curve)” value in [7] and in assay [2] were roughly 0.4 nM and roughly 0.5 nM, respectively. Further, the Kd in assay [3] worked out at 29.4 nM; in assay [4] it was 13.9 nM; in assay [5] it was 2.51 nM.
